Tests used:
[1] = target: T1, Human Notch4-NRR domain Fc fusion protein (human, UniProt Q99466 1046-1445, limits assumed); assay: SPR (Biacore) as for Table 30; Notch4-NRR-Fc captured, antibody injected; averaged, N=2
T1 construct: Expressed in a CHO cell line, used from culture supernatant; 1 is named; also called Human Notch4-NRR Fusion Protein; not shown: Fc
T1 sequence: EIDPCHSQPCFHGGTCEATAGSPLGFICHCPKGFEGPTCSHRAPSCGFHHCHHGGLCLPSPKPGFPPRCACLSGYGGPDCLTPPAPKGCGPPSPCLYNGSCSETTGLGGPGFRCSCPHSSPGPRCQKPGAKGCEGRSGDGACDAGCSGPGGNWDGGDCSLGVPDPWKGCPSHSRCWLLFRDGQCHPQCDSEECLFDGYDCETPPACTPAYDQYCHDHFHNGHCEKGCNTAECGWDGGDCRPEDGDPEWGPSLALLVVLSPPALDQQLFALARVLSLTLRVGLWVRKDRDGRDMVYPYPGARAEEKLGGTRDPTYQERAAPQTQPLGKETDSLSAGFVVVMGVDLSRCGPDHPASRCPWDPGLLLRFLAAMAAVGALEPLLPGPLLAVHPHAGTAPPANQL
Description: (§1) Kinetic analysis of further anti-Notch4 inhibitory humanized antibodies was carried out as follows. Human Notch4-NRR domain Fc fusion proteins were expressed with a CHO cell line. The antigen in the culture supernatant was captured by the anti-human Notch4 antibody fixed on a CM5 sensor chip that recognizes different epitopes of human Notch4. The humanized anti-human Notch4 antibody was then injected onto the sensor chip at various concentrations. The interaction and disassociation constants thereof were calculated according to manufacturer's instructions.

[2] = target: T1, Human Notch4-NRR domain Fc fusion …; assay: SPR (Biacore); Notch4-NRR-Fc captured by another anti-Notch4 antibody on CM5, antibody injected
Description: as §1

[3] = target: T2, Cynomolgus monkey Notch4-NRR domain fused with SEAP and 10× histidine tag (cynomolgus monkey, UniProt P05187 23-511 (human entry)); assay: SPR (Biacore); antibody captured by anti-human IgG Fc on CM5, Notch4-NRR-SEAP-His injected
T2 construct: not shown: 10x histidine tag
Description: (§2) Kinetic analysis of the interaction of human, cynomolgus monkey, mouse, and rat Notch4-NRR domains with Antibody B was carried out with BIACORE. […] The genes for these proteins were transfected into Expi293F cells in Opti-MEM (INVITROGEN) using ExpiFectamine 293. These cells were cultured in Expi293 Expression Medium (INVITROGEN). Briefly, cells were diluted to 7.5×10⁷ cells/25.5 mL, and transfected by ExpiFectamine 293 reagent on Day 0. About 16 hours after transfection, 150 uL of ExpiFectamine 293 Transfection Enhancer 1 and 1.5 mL of ExpiFectamine 293 Transfection Enhancer 2 were added to each flask. The supernatant was collected on Day 4. These antigens were purified with Ni-NTA Superflow column (QIAGEN). The interaction was analyzed as below. The purified Antibody B was captured by anti-human IgG Fc antibody fixed on a CM5 sensor chip (GE healthcare). The purified Notch4-NRR fusion proteins were injected onto the sensor chip at 8 different concentrations, and the interaction and dissociation thereof were observed as per manufacturer's instructions.

[4] = target: T3, Mouse Notch4-NRR domain fused with SEAP and 10× histidine tag (mouse, UniProt P31695 1042-1441); assay: as above
T3 construct: domain: Notch4-NRR domain; not shown: secretory alkaline phosphatase (SEAP); 10x histidine tag
T3 sequence (looked up): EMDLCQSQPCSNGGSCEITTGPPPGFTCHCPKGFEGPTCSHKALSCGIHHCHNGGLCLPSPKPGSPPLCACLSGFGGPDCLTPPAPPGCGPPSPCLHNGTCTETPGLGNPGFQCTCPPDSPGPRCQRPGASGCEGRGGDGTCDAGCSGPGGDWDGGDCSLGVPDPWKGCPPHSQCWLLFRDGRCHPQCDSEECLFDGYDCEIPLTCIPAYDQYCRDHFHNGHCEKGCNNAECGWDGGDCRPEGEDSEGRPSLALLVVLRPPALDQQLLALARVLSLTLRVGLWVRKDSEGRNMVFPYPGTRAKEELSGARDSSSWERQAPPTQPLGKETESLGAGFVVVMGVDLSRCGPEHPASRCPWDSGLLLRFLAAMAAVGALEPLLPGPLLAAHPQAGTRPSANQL
Description: as §2

[5] = target: T4, Human Notch4-NRR domain fused with secretory alkaline phosphatase (SEAP) and 10× histidine tag (human, UniProt Q99466 1046-1445); assay: as above
T4 construct: 1 is named; not shown: secretory alkaline phosphatase (SEAP); 10x histidine tag
T4 sequence: T1 sequence
Description: as §2

[6] = target: T5, Notch4 with a part of the intracellular domain substituted with GAL4 DNA binding domain, on b.end3 reporter …; assay: cell-based or functional assay
[7] = target: T6, Human Notch4-NRR-SEAP-HA-His (human, UniProt Q99466 1046-1445); assay: SPR (BIAcore T100); antibody captured by anti-human IgG Fc on CM5, NRR-SEAP-HA-His injected at 6 concentrations
T6 construct: also called human Notch4-NRR-SEAP-His; human Notch4 NRR domain; not shown: secretory alkaline phosphatase (SEAP); hemagglutinin (HA) tag; histidine tag (x10)
T6 sequence: T1 sequence
Description: Kinetics analysis using BIAcore T100 was performed for the interaction between the NRR domain of human Notch isotypes (Notch1, Notch2, Notch3, and Notch4) and Antibody B. Antibody B was purified from the culture supernatant of a stable expression CHO cell line of Antibody B with sequential use of protein A affinity chromatography, Capto Q anion exchange chromatography, and UNOsphere S cation exchange chromatography. Fusion proteins of Human Notch1 NRR domain (Genbank Accession No. 017617; sequence positions 1307-1733), human Notch2 NRR domain (Genbank Accession No. 024408; sequence positions 1239-1650), human Notch3 NRR domain (Genbank Accession No. 000435; sequence positions 1246-1641), and human Notch4 NRR domain (Genbank Accession No. NP_004548.3; sequence positions 1046-1445) with secretory alkaline phosphatase (SEAP), a hemagglutinin (HA) tag, and a histidine tag (×10) were created, and these were purified with HisTrap™ Fast Flow column (GE Healthcare). The interaction between Antibody B and the NRR domain of each human Notch isotypes was measured with the following method. The purified Antibody B was captured by anti-human IgG Fc antibody fixed on a CM5 sensor chip (GE Healthcare). The purified NRR domain of each human Notch isotypes was injected onto the sensor chip at 6 different concentrations, and the interaction and dissociation with the antibody were observed as per operation manual.

[8] = target: T5, Notch4 with a part of the intracellular …; assay: cell-based or functional assay; remark: listed apart in the source
[9] = target: T1, Human Notch4-NRR domain Fc fusion …; assay: SPR (Biacore) as for Table 30; Notch4-NRR-Fc captured, antibody injected; averaged, N=5
Description: as §1

[10] = target: T1, Human Notch4-NRR domain Fc fusion …; assay: SPR (Biacore) as for Table 30; Notch4-NRR-Fc captured, antibody injected; averaged, N=9
Description: as §1

T2 sequence (P05187 23-511): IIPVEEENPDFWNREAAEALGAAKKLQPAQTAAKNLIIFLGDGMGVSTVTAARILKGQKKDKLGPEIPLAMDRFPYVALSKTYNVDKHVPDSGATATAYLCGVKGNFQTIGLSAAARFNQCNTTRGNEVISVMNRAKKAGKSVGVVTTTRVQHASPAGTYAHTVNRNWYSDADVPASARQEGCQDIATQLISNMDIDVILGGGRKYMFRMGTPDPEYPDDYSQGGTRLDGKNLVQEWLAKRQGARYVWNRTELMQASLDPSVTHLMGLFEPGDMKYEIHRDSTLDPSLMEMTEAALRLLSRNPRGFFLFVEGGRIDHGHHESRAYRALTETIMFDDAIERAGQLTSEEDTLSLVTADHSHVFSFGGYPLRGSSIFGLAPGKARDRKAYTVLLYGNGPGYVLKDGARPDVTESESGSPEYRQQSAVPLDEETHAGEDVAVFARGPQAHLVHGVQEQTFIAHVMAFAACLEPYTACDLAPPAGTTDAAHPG

B1: Antibody B (antibody, human IgG2, kappa)
heavy: EVQLVESGGGLVQPGGSLRLSCAASGFTFSSYGMSWVRQAPGKGLELVATINSNGGRTYYPDSVKGRFTISRDNSKNTLYLQMGSLKAEDMAVYYCARDQGFAYWGQGTLVTVSSASTKGPSVFPLAPCSRSTSESTAALGCLVKDYFPEPVTVSWNSGALTSGVHTFPAVLQSSGLYSLSSVVTVPSSNFGTQTYTCNVDHKPSNTKVDKTVERKCCVECPPCPAPPAAAPSVFLFPPKPKDTLMISRTPEVTCVVVDVSHEDPEVQFNWYVDGVEVHNAKTKPREEQFNSTFRVVSVLTVVHQDWLNGKEYKCKVSNKGLPAPIEKTISKTKGQPREPQVYTLPPSREEMTKNQVSLTCLVKGFYPSDIAVEWESNGQPENNYKTTPPMLDSDGSFFLYSKLTVDKSRWQQGNVFSCSVMHEALHNHYTQKSLSLSPG
light: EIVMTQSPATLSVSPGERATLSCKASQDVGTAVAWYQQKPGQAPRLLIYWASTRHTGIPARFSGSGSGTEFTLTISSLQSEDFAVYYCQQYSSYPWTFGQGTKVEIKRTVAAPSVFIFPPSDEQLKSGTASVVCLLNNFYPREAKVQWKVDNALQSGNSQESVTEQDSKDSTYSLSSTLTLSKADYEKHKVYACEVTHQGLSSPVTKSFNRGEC
notes: Humanized IgG2 (V234A, G237A)/κ; also called HK3L3 (Lys-); HK3L3(Lys-)
With B1 the Kd [1] was 0.331 nM, the koff [1] was 0.000822 s⁻¹ and the kon [1] was 2.48e+06 M⁻¹ s⁻¹. For the same binder, the Kd [2] was 0.441 nM, the koff [2] was 0.00071 s⁻¹ and the kon [2] was 1.66e+06 M⁻¹ s⁻¹. For the same binder, the Kd [3] was 3.62 nM, the koff [3] was 0.00106 s⁻¹ and the kon [3] was 295000 M⁻¹ s⁻¹. The Kd [4] was 11.2 nM, the koff [4] was 0.00727 s⁻¹ and the kon [4] was 601000 M⁻¹ s⁻¹. The Kd [5] was 3.74 nM, the koff [5] was 0.00118 s⁻¹ and the kon [5] was 317000 M⁻¹ s⁻¹. For the same binder, the “% of Control (relative luminescence), Notch4-GAL4 luciferase reporter assay, antibody at 10 µg/ml” value [6] was 10.8 % of Control, the Kd [7] was 30.5 nM and the koff [7] was 0.000831 s⁻¹. The kon [7] was 27200 M⁻¹ s⁻¹ and the “IC50 of relative luminescence (%), Notch4-GAL4 luciferase reporter assay, reporter cells stimulated with solid phased DLL4” value [8] was 0.011 µg/mL.

B2: Antibody D (antibody, human IgG2, kappa)
heavy: B1 heavy
light: DIQMTQSPSSLSASVGDRVTITCKASQDVGTAVAWYQQKPGKSPKLLIYWASTRHTGVPSRFSGSGSGTDFTLTISSLQPEDVATYFCQQYSSYPWTFGQGTKVEIKRTVAAPSVFIFPPSDEQLKSGTASVVCLLNNFYPREAKVQWKVDNALQSGNSQESVTEQDSKDSTYSLSSTLTLSKADYEKHKVYACEVTHQGLSSPVTKSFNRGEC
notes: Humanized IgG2 (V234A, G237A)/κ; also called HK3L5 (Lys-); HK3L5(Lys-)
B2 showed a Kd [2] of 0.475 nM, a koff [2] of 0.000863 s⁻¹ and a kon [2] of 1.82e+06 M⁻¹ s⁻¹. The “% of Control (relative luminescence), Notch4-GAL4 luciferase reporter assay, antibody at 10 µg/ml” value [6] was 21 % of Control, the Kd [9] was 0.529 nM and the koff [9] was 0.00109 s⁻¹. It also gave a kon [9] of 2.1e+06 M⁻¹ s⁻¹.

B3: Mouse anti-human Notch4 monoclonal antibody 6-3-A6 (antibody, V domains shown)
VH: EVQLVESGGGLVQPGGSLKLSCAASGFTFSSYGMSWVRQTPDKRLELVATINSNGGRTYYPDSVKGRFTISRDNAKNTLYLQMSSLKSEDTAMYYCARDQGFAYWGQGTLVTVSA
VL: DIVMTQSHKFMSTSVGDRVSITCKASQDVGTAVAWYQQKPGQSPKLLIYWASTRHTGVPDRFTGSGSGTDFTLTISNVQSEDLADYFCQQYSSYPWTFGGGTKLEIK
notes: Mouse hybridoma antibody; cloned with primers for mouse IgG1 heavy chain and mouse Igκ light chain; also called Original
With B3 the Kd [10] was 0.321 nM, the koff [10] was 0.000742 s⁻¹ and the kon [10] was 2.35e+06 M⁻¹ s⁻¹.

Reference: patent US20170096493A1 (EISAI R AND D MANAGEMENT, published 2017)
